± gives the standard error. For part of these data: This sample holds only a part of the variants without activity.

B1: glmS ribozyme (parent)
chain: AUAAAAGCGCCAGAACUACAGAAAUGUAGUUGACGAGGAGGAGGUUUAUCGAAUUUUCGGCGGAUGCCUCCAAA

Details in all cases: with glucosamine-6-phosphate
Variants of B1 are the subject of data set [1]. Briefly: kcat; higher = faster cleavage; RNA array. A digest of the protocol:
(§1)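 Barcoded ribozyme variants on sequenced MiSeq chips were transcribed in situ by E. coli RNA polymerase and followed at 37 °C through a hybridised Cy3 probe. Glucosamine-6-phosphate at 40 μM to 10 mM in HEPES/KCl/Mg(OAc)2 buffer was flowed in, and tiles were imaged over ~14 h. Signals were normalised to baseline and to non-cleaving reference variants, and per-tile medians were fit to one- or two-exponential decays to give kobs. Weighted Michaelis–Menten fits across concentrations gave kcat and KM.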

Data set [2] covers variants of B1. Put plainly: self-cleavage kobs at 2500 uM GlcN6P; higher = faster cleavage; RNA array. A digest of the protocol:
as §1

The variants in data set [3] derive from B1. Briefly: self-cleavage kobs at 10000 uM GlcN6P; higher = faster cleavage; RNA array. A digest of the protocol:
as §1

Variants of B1 are the subject of data set [4]. Briefly: KM; higher = weaker cofactor use; RNA array. A digest of the protocol:
as §1

Variants of B1 are the subject of data set [5]. Briefly: self-cleavage kobs at 640 uM GlcN6P; higher = faster cleavage; RNA array. A digest of the protocol: as §1
Data set [6] covers variants of B1. Briefly: self-cleavage kobs at 40 uM GlcN6P; higher = faster cleavage; RNA array. A digest of the protocol: as §1
Data set [7] covers variants of B1. Put plainly: self-cleavage kobs at 160 uM GlcN6P; higher = faster cleavage; RNA array. A digest of the protocol: as §1

Take A12C C58A: the kcat with glucosamine-6-phosphate [1] was found to be 0.000734 ± 2.1e-05 s⁻¹. Moreover, in the data set with glucosamine-6-phosphate [2], the “self-cleavage kobs at 2500 uM GlcN6P” value amounted to 0.000104 ± 1.8e-05 s⁻¹. For the same variant, the “self-cleavage kobs at 10000 uM GlcN6P” value in the data set with glucosamine-6-phosphate [3] stood at 0.000291 ± 4.6e-05 s⁻¹.
For A15C U30C A52G G63C, the kcat with glucosamine-6-phosphate [1] was less than 1e-05 s⁻¹.
Take A33U: in the data set with glucosamine-6-phosphate [1], the kcat was 0.00014 ± 3.2e-06 s⁻¹. Also, in the data set with glucosamine-6-phosphate [4], the Michaelis constant (KM) came to 2770 ± 160 µM. In addition, the “self-cleavage kobs at 640 uM GlcN6P” value in the data set with glucosamine-6-phosphate [5] is 2.78e-05 ± 1.1e-06 s⁻¹. The “self-cleavage kobs at 2500 uM GlcN6P” value in the data set with glucosamine-6-phosphate [2] is 6.53e-05 ± 1.2e-06 s⁻¹. In addition, in the data set with glucosamine-6-phosphate [3], the “self-cleavage kobs at 10000 uM GlcN6P” value amounted to 0.000111 ± 1.4e-06 s⁻¹.
Consider C58A C71A, for which the kcat with glucosamine-6-phosphate [1] amounted to 5.74e-05 ± 1e-05 s⁻¹. Also, the “self-cleavage kobs at 640 uM GlcN6P” value in the data set with glucosamine-6-phosphate [5] turned out to be 3.29e-05 ± 1.3e-05 s⁻¹. In addition, the “self-cleavage kobs at 2500 uM GlcN6P” value with glucosamine-6-phosphate [2] was 7.33e-05 ± 1.5e-05 s⁻¹. Moreover, the “self-cleavage kobs at 10000 uM GlcN6P” value with glucosamine-6-phosphate [3] was 4.88e-05 ± 9.7e-06 s⁻¹.
Consider A33U U54A C68A, for which the kcat with glucosamine-6-phosphate [1] was determined as 2.8e-05 ± 3.4e-06 s⁻¹.
On to A14C G44U, for which, in the data set with glucosamine-6-phosphate [1], the kcat stood at 4.6e-05 ± 8.4e-06 s⁻¹. In addition, the “self-cleavage kobs at 40 uM GlcN6P” value with glucosamine-6-phosphate [6] is less than 1e-05 s⁻¹. Moreover, the “self-cleavage kobs at 2500 uM GlcN6P” value in the data set with glucosamine-6-phosphate [2] amounted to 3.7e-05 ± 1.4e-05 s⁻¹. Moreover, the “self-cleavage kobs at 10000 uM GlcN6P” value with glucosamine-6-phosphate [3] is 3.91e-05 ± 9.8e-06 s⁻¹.
On to A14U U57G, for which, in the data set with glucosamine-6-phosphate [1], the catalytic constant (kcat) stood at 2.1e-05 ± 4e-06 s⁻¹. In addition, the “self-cleavage kobs at 40 uM GlcN6P” value in the data set with glucosamine-6-phosphate [6] is less than 1e-05 s⁻¹.
As to G51A G59U, the kcat with glucosamine-6-phosphate [1] is less than 1e-05 s⁻¹. In the data set with glucosamine-6-phosphate [4], the KM is 157 ± 36 µM. Moreover, in the data set with glucosamine-6-phosphate [6], the “self-cleavage kobs at 40 uM GlcN6P” value is less than 1e-05 s⁻¹. The “self-cleavage kobs at 640 uM GlcN6P” value with glucosamine-6-phosphate [5] is less than 1e-05 s⁻¹.
Consider A12G G63C, for which the kcat with glucosamine-6-phosphate [1] was less than 1e-05 s⁻¹. The “self-cleavage kobs at 160 uM GlcN6P” value in the data set with glucosamine-6-phosphate [7] is less than 1e-05 s⁻¹. The “self-cleavage kobs at 10000 uM GlcN6P” value in the data set with glucosamine-6-phosphate [3] was less than 1e-05 s⁻¹.
As for C11G G66A, in the data set with glucosamine-6-phosphate [1], the kcat is less than 1e-05 s⁻¹. Besides, in the data set with glucosamine-6-phosphate [6], the “self-cleavage kobs at 40 uM GlcN6P” value was less than 1e-05 s⁻¹. The “self-cleavage kobs at 160 uM GlcN6P” value with glucosamine-6-phosphate [7] was less than 1e-05 s⁻¹. In the data set with glucosamine-6-phosphate [5], the “self-cleavage kobs at 640 uM GlcN6P” value was less than 1e-05 s⁻¹. For the same variant, the “self-cleavage kobs at 10000 uM GlcN6P” value with glucosamine-6-phosphate [3] is less than 1e-05 s⁻¹.
Take C34U U69C: in the data set with glucosamine-6-phosphate [1], the kcat was less than 1e-05 s⁻¹.
For the variant A14G A42U, the kcat in the data set with glucosamine-6-phosphate [1] was determined as 0.000931 ± 0.00011 s⁻¹. In the data set with glucosamine-6-phosphate [4], the Michaelis-Menten constant (KM) turned out to be 3180 ± 600 µM. Besides, the “self-cleavage kobs at 160 uM GlcN6P” value in the data set with glucosamine-6-phosphate [7] amounted to 5.25e-05 ± 1.1e-05 s⁻¹. The “self-cleavage kobs at 640 uM GlcN6P” value with glucosamine-6-phosphate [5] amounted to 0.000152 ± 2.5e-05 s⁻¹. Also, the “self-cleavage kobs at 2500 uM GlcN6P” value in the data set with glucosamine-6-phosphate [2] came to 0.000357 ± 7e-05 s⁻¹. Further, the “self-cleavage kobs at 10000 uM GlcN6P” value in the data set with glucosamine-6-phosphate [3] is 0.000738 ± 9.3e-05 s⁻¹.
On to G40U U57A, for which, in the data set with glucosamine-6-phosphate [1], the kcat came out at 6e-05 ± 6.8e-06 s⁻¹. In the data set with glucosamine-6-phosphate [6], the “self-cleavage kobs at 40 uM GlcN6P” value is less than 1e-05 s⁻¹. The “self-cleavage kobs at 10000 uM GlcN6P” value in the data set with glucosamine-6-phosphate [3] was 2.24e-05 ± 1e-05 s⁻¹.
In the case of U47G A53C, in the data set with glucosamine-6-phosphate [1], the kcat was determined as 0.00406 ± 0.001 s⁻¹. The Michaelis constant (KM) with glucosamine-6-phosphate [4] is 2510 ± 860 µM. For the same variant, the “self-cleavage kobs at 40 uM GlcN6P” value with glucosamine-6-phosphate [6] stood at 0.000103 ± 3.4e-05 s⁻¹. The “self-cleavage kobs at 160 uM GlcN6P” value with glucosamine-6-phosphate [7] was 0.000223 ± 3.9e-05 s⁻¹. For the same variant, the “self-cleavage kobs at 640 uM GlcN6P” value in the data set with glucosamine-6-phosphate [5] amounted to 0.000873 ± 0.00013 s⁻¹. The “self-cleavage kobs at 2500 uM GlcN6P” value in the data set with glucosamine-6-phosphate [2] was found to be 0.00196 ± 0.00025 s⁻¹. The “self-cleavage kobs at 10000 uM GlcN6P” value in the data set with glucosamine-6-phosphate [3] came out at 0.00439 ± 0.0019 s⁻¹.
As for A14U U54C C67U, the kcat with glucosamine-6-phosphate [1] turned out to be 0.00203 ± 0.00034 s⁻¹. The KM with glucosamine-6-phosphate [4] turned out to be 1680 ± 410 µM. Moreover, the “self-cleavage kobs at 40 uM GlcN6P” value with glucosamine-6-phosphate [6] stood at 5.21e-05 ± 1.9e-05 s⁻¹. Moreover, in the data set with glucosamine-6-phosphate [7], the “self-cleavage kobs at 160 uM GlcN6P” value was found to be 0.000164 ± 2.3e-05 s⁻¹. Also, in the data set with glucosamine-6-phosphate [5], the “self-cleavage kobs at 640 uM GlcN6P” value stood at 0.000887 ± 0.00023 s⁻¹. Besides, the “self-cleavage kobs at 2500 uM GlcN6P” value in the data set with glucosamine-6-phosphate [2] was 0.00131 ± 0.00025 s⁻¹. In addition, in the data set with glucosamine-6-phosphate [3], the “self-cleavage kobs at 10000 uM GlcN6P” value was 0.00163 ± 0.0003 s⁻¹.
As to G13U G32A, the kcat in the data set with glucosamine-6-phosphate [1] turned out to be 0.00326 ± 0.00047 s⁻¹. In the data set with glucosamine-6-phosphate [4], the Michaelis-Menten constant (KM) is 3530 ± 710 µM. Besides, the “self-cleavage kobs at 40 uM GlcN6P” value in the data set with glucosamine-6-phosphate [6] turned out to be 4.41e-05 ± 7.3e-06 s⁻¹. Besides, in the data set with glucosamine-6-phosphate [7], the “self-cleavage kobs at 160 uM GlcN6P” value worked out at 0.000153 ± 1.8e-05 s⁻¹. In addition, the “self-cleavage kobs at 640 uM GlcN6P” value with glucosamine-6-phosphate [5] stood at 0.000465 ± 5e-05 s⁻¹. The “self-cleavage kobs at 2500 uM GlcN6P” value with glucosamine-6-phosphate [2] was determined as 0.00124 ± 0.00013 s⁻¹. In addition, the “self-cleavage kobs at 10000 uM GlcN6P” value with glucosamine-6-phosphate [3] is 0.00258 ± 0.00026 s⁻¹.
Take U30G A33C: the kcat with glucosamine-6-phosphate [1] was 4.15e-05 ± 6e-07 s⁻¹. In addition, the Michaelis constant (KM) in the data set with glucosamine-6-phosphate [4] stood at 2230 ± 140 µM. Also, in the data set with glucosamine-6-phosphate [3], the “self-cleavage kobs at 10000 uM GlcN6P” value turned out to be 3.4e-05 ± 8.1e-06 s⁻¹.
Consider G38C A48G, for which the turnover number (kcat) with glucosamine-6-phosphate [1] is less than 1e-05 s⁻¹. In the data set with glucosamine-6-phosphate [5], the “self-cleavage kobs at 640 uM GlcN6P” value is less than 1e-05 s⁻¹.
Consider A39C U47A, for which the kcat with glucosamine-6-phosphate [1] turned out to be 0.00575 ± 0.0015 s⁻¹. For the same variant, the KM in the data set with glucosamine-6-phosphate [4] turned out to be 4090 ± 1400 µM. For the same variant, the “self-cleavage kobs at 40 uM GlcN6P” value in the data set with glucosamine-6-phosphate [6] is 8.72e-05 ± 1.3e-05 s⁻¹. Moreover, the “self-cleavage kobs at 160 uM GlcN6P” value with glucosamine-6-phosphate [7] came out at 0.000179 ± 2.3e-05 s⁻¹. In addition, the “self-cleavage kobs at 640 uM GlcN6P” value in the data set with glucosamine-6-phosphate [5] turned out to be 0.000865 ± 0.0001 s⁻¹. The “self-cleavage kobs at 2500 uM GlcN6P” value with glucosamine-6-phosphate [2] came out at 0.0021 ± 0.00033 s⁻¹. The “self-cleavage kobs at 10000 uM GlcN6P” value with glucosamine-6-phosphate [3] worked out at 0.00409 ± 0.00043 s⁻¹.

Usually kcat stands for the number of substrate molecules converted per active site and unit of time at saturation. As usually defined, the KM is the concentration of substrate that gives half-maximal velocity.

These data come from the supplement of paper PMC7125110.
